Laboratory results taken from patent US20240392013A1 (STELEXIS THERAPEUTICS, published 2024).

T1: recombinant mouse IL1RAP protein (Sino Biological, Cat #52657-M08H) (mouse, UniProt Q61730 21-359)
T1 construct: Bought protein
T1 sequence (looked up): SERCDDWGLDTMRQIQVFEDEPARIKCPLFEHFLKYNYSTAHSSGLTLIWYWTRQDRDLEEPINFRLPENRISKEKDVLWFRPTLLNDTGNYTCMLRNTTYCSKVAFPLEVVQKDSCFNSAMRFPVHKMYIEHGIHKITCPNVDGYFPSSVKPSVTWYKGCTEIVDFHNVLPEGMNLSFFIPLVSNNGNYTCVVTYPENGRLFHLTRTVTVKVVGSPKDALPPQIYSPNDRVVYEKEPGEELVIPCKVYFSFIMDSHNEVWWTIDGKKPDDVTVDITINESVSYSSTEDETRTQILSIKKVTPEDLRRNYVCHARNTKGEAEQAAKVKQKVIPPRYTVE

T2: IL1RAP-Fc protein (Sino Biological, Cat #10121-H02H), recombinant human IL1RAP extracellular domain Fc-tagged (human, UniProt Q9NPH3 21-367)
T2 construct: extracellular domain; not shown: Fc tag
T2 sequence (looked up): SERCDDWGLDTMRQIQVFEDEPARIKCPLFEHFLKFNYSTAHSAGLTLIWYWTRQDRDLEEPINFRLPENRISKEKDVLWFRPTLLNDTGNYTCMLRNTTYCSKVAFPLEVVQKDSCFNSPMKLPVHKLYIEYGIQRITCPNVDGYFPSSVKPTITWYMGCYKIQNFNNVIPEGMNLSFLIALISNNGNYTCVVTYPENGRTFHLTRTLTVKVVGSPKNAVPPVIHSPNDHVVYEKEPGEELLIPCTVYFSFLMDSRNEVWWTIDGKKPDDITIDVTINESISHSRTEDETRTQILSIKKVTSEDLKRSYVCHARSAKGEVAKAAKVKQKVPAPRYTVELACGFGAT


Tests used:
[1] = biological target: T1, recombinant mouse IL1RAP protein (Sino …); experiment: cell-free ELISA, mouse IL1RAP coated; data not shown
Outline: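 Plates coated overnight at 4 °C with recombinant IL1RAP at 1 μg/ml in PBS pH 7.4, then blocked with 1% BSA. Antibodies incubated 1 h at room temperature from 100 nM in seven half-log dilutions. Bound antibody detected with anti-His HRP and chemiluminescence.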

[2] = biological target: T2, IL1RAP-Fc protein (Sino Biological, Cat …); experiment: cell-free competition ELISA: IL1RAP-Fc coated, mAb titrated, blocks binding of premixed IL1R1-His/IL1β complex
Method: High-binding 96-well plates were coated with IL1RAP-Fc protein (Sino Biological, Cat #10121-H02H) at concentration of 4 µg/ml and incubated overnight at 4° C. After 3× washes with 0.05% Tween-20 in PBS, pH 7.5, plates were blocked with 1% BSA in PBS for 1 hour at room temperature. Following, wells were incubated with each antibody at concentration of 50 nM for 1 hour at room temperature. […] IL1R1/IL1β complex was preincubated in assay buffer (1% BSA in PBS, pH 7.5) for 20 min at room temperature. After 3× washes, plates were incubated with anti-His HRP detection antibody (Medna, Cat #D8212, […]) for 1 hour at room temperature. Following 5× washes, SuperPico chemiluminescent substrate was applied to wells and signal was read on Spectramax M5.

binding result [1]	IC50 [2] [nM]	Binder
no binding (tested: 100 nM)	0.824	STLX2012 (antibody, V domains shown, Purified from hybridoma of immunized Alivamab mice; intact IgG; captured on anti-mouse IgG Fc sensors in Octet; kappa light chain; also called 74804_12A21B) VH: QVQLLQSGAEVKKPGSSVKVSCKASGGTFSIYAIDWVRQAPGQGLEWMGGIIPIFGTANSAQKFQGRVTITADKSTSTAYMELSSLRSEDTAVYYCARNGATSDAFDMWGQGTMVTVSS VL: EIVLTQSPGTLSLSPGERATLSCRASLSVSSNYLAWFQQRPGQAPRLLIHGVSRRATGIPDRFSGSGSGTDFTLTISRLEPEDFAVYYCQQYGSSPLTFGGGTKVEIK
no binding (tested: 100 nM)	0.804	STLX2043 (antibody, V domains shown, Purified from hybridoma of immunized Alivamab mice; intact IgG; captured on anti-mouse IgG Fc sensors in Octet; kappa light chain; also called 74804_43F04A) VH: QVQLLQSGAEVKKPGSSVKVSCKASGGTFSIYAIDWVRQAPGQGLEWMGGIIPIFGTENSAQNFQGRITITADKSTNTAYMELSSLRSEDTAVYYCARNGATSDAFDIWGQGTMVTVFS VL: EIVLTQSPGTLSLSPGERATLSCRASLSVSSNYLAWFQQRPGQAPRLLIYGVSRRATGIPDRFSGSGSGTDFTLTISRLEPEDFAVYYCQQYGSSPLTFGGGTKVEIK
